{"source": "paper PMC10080687", "about": "“Tautomer-Specific Deacylation and Ω-Loop Flexibility Explain the Carbapenem-Hydrolyzing Broad-Spectrum Activity of the KPC-2 β-Lactamase” (Journal of the American Chemical Society, 2023)", "assay_in_all_cases": "purified protein", "conditions_in_all_cases": "acylates Ser70", "key": {"[1]": {"system": "C[C@@H](O)[C@H]1C(=O)N2C(C(=O)O)=C(S[C@@H]3CN[C@H](C(=O)N(C)C)C3)[C@H](C)[C@H]12", "assay_type": "biochemical, Klebsiella pneumoniae"}, "[2]": {"system": "C[C@@H](O)[C@H]1C(=O)N2C(C(=O)O)=C(S[C@@H]3CN[C@H](C(=O)Nc4cccc(C(=O)O)c4)C3)[C@H](C)[C@H]12", "assay_type": "biochemical, Klebsiella pneumoniae"}, "[3]": {"system": "C[C@@H](O)[C@H]1C(=O)N2C(C(=O)O)=C(SCCN=CN)C[C@H]12"}, "[4]": {"system": "CC(=O)OCC1=C(C(=O)O)N2C(=O)[C@@H](NC(=O)Cc3cccs3)[C@H]2SC1"}}}
{"substance": "KPC-2 (Klebsiella pneumoniae)", "values": [{"measurement": "Km", "setting": "[1]", "result": 7.1, "unit": "µM"}, {"measurement": "kcat", "setting": "[1]", "result": 21, "unit": "s⁻¹"}, {"measurement": "kcat/Km", "setting": "[1]", "result": "3e+06", "unit": "M⁻¹ s⁻¹"}, {"measurement": "Km", "setting": "[2]", "result": 8.6, "unit": "µM"}, {"measurement": "kcat", "setting": "[2]", "result": 8, "unit": "s⁻¹"}, {"measurement": "kcat/Km", "setting": "[2]", "result": 920000, "unit": "M⁻¹ s⁻¹"}, {"measurement": "Km", "setting": "[3]", "result": 72, "unit": "µM"}, {"measurement": "kcat", "setting": "[3]", "result": 22, "unit": "s⁻¹"}, {"measurement": "kcat/Km", "setting": "[3]", "result": 310000, "unit": "M⁻¹ s⁻¹"}, {"measurement": "Km", "setting": "[4]", "result": 42, "unit": "µM"}, {"measurement": "kcat", "setting": "[4]", "result": 110, "unit": "s⁻¹"}]}
